This note sets out measurements from the RNAGym collection of RNA variant scans (doi:10.7554/elife.90254).

The labels stand for the following.
B1: OR4K15 (parent)
chain: GUUAACGGUCAUAGGCCAUGGAAACUAGGAGCACCAUUUCGCUGCCAGUGAAGAAAUGAACAAAGAAAAUCUGGGCCAGGCAGGCAUCAAAAGAAAUAGUCUUGCGCUCAACCAGAAAGUCUGUAAUCAUUUUAAGGGUA

In this data set the parent is B1. In words: self-cleavage, relative activity (ratio to wild type); higher = more cleavage; in vitro, sequencing; the parent is a self-cleaving ribozyme.
As for A13U U38C, the self-cleavage was found to be 0.61.
Regarding C17U U108C, the self-cleavage was determined as 0.
In the case of U12C U87C it was 0.75; in that of A13G U130C, 0.83; in that of A13G U130A, 0.34.
With C16U A78G, the self-cleavage was 0.62.
Turning to C17U A114G, the self-cleavage came out at 0.54.
As for G15U, the figure is 0.69; as for G15A, 0.92; as for G15C, 1.05.
Take U12C U43C: the self-cleavage amounted to 1.34.
In the case of U12C U43A it was 0.93.
Consider G14U U87C, for which the self-cleavage came to 1.48.
As for G15U U72G, the figure is 0.36; as for G14A A90C, 0.98.
U12G U37C: the self-cleavage worked out at 1.48.
As for C17U A129G, the figure is 0.43; as for A18G A30U, 1.01.
With A18G A30G, the self-cleavage amounted to 0.88.
On to C16U U57C, for which the self-cleavage was 1.14.
In the case of G14A A30G, the self-cleavage turned out to be 2.84.
Take C16U A140G: the self-cleavage was 1.64.
Consider A13G U127A, for which the self-cleavage is 1.91.
As for A13G C109A, the figure is 0.6.
In the case of C17U U43A it was 1.18; in that of C17U A135G, 1.05; in that of C16U U120C, 1.42.
In the case of A13G A118C it was 0.41; in that of G15U U87A, 1.44.
With U12C U38C, the self-cleavage was found to be 1.73.
Turning to U12C U38G, the self-cleavage was 1.22.
For the variant U12G C105U, the self-cleavage was 0.22.
As for G15A U43C, the figure is 1.35.
In the case of G15U G136A it was 2.24; in that of A13G A23G, 1.3.
Regarding A13G U43C, the self-cleavage stood at 0.98.
In the case of C17U A24U, the self-cleavage was determined as 1.29.
As for A13G A96G, the figure is 0.9; as for C16G A68G, 0.69.
In the case of C17U U102C it was 0.9; in that of C17U U100A, 0.96.
In the case of G14C it was 1.4; in that of G14A, 1.24; in that of G14U, 1.11.
In the case of A13G C85U, the self-cleavage is 0.89.
In the case of U12C U100C it was 1.4.
In the case of U12C U100G it was 1.34; in that of C16U A111G, 0.05.
For A13G U37A, the self-cleavage was 0.82.
As for C17U A30G, the figure is 1.03; as for G15A A33G, 0.94; as for A13U A111G, 0.03.
As for G14A A140G, the figure is 1.89.
In the case of A18G A55G it was 1.07; in that of G15C U108C, 0.03; in that of U12C U108C, 0.03.
As for G15A U131G, the self-cleavage came to 1.44.
As to A13C A135G, the self-cleavage is 1.04.
In the case of U12C U130A, the self-cleavage was found to be 1.45.
In the case of C16A U57G it was 0.88; in that of A13G C107A, 0.19.
In the case of A13U A18C it was 1.62.
With U12C U124C, the self-cleavage is 0.67.
For C16U U38C, the self-cleavage came to 0.76.
As for U12G A13G, the figure is 1.09.
As for C16U G73A, the figure is 0.15; as for A13U G73A, 0.16.
On to A13U A47U, for which the self-cleavage turned out to be 1.24.
In the case of A13G A18G it was 1.3.
For A13G A18U, the self-cleavage was 0.89.
As for C16U C85U, the figure is 1.15.
As for U12C U19A, the figure is 1.05.
In the case of A13G it was 0.79.
Regarding A13U, the self-cleavage stood at 1.11.
Consider A13C, for which the self-cleavage stood at 1.33.
As for A13U A110G, the figure is 0.08; as for A13U A110U, 1.26; as for A13U A51G, 1.53.
With A13U A24G, the self-cleavage came to 1.06.
As for C16U A55G, the self-cleavage came to 1.63.
As for G15U A56G, the figure is 1.89.
As for A13U A30G, the figure is 1.26; as for A13G G75C, 0.43; as for A13U U49C, 1.28.
In the case of C16U A110U it was 0.72; in that of U12G G138A, 1.44; in that of C16U G137A, 0.85.
For the variant U12C U102A, the self-cleavage came to 1.94.
In the case of U12C U37C it was 1.04; in that of C17U A66G, 1.68; in that of A18C U108C, 0.01.
In the case of A13U C35A, the self-cleavage was found to be 1.88.
In the case of A18C A129G it was 0.75; in that of A18C U103C, 0.86.
As for G15A A24G, the figure is 1.4.
On to G14A A23G, for which the self-cleavage is 0.8.
For A13C U132C, the self-cleavage came to 1.06.
In the case of A13G U120A it was 1.9; in that of A13G U120C, 0.6.
As for G15C A78U, the figure is 0.37; as for A13U A90C, 1.69.
As for U12C A129G, the figure is 0.89; as for A13G U72C, 0.54; as for G14C A118G, 0.43.
Turning to A13G G93U, the self-cleavage was found to be 0.86.
In the case of U12C U131C it was 1.28; in that of A13G A86G, 0.89; in that of A13G A86C, 0.5.
As for A18C U130C, the figure is 0.96; as for G14A A33U, 1.16.
As for G14U A52U, the figure is 1.71; as for G15A A95G, 1.73; as for A13C A66G, 0.52.
Take A18C A47G: the self-cleavage was 0.59.
Take A18G A24U: the self-cleavage stood at 1.6.
As for A18G A24G, the figure is 1; as for A18G A66G, 1.81.
Take G15A A118G: the self-cleavage amounted to 0.47.
Turning to U12C G41A, the self-cleavage turned out to be 1.35.
As for A13G A111G, the figure is 0.15.
As for A13U A22U, the self-cleavage was 1.45.
As for A13U A22G, the figure is 1.38; as for C16U A54G, 0.87; as for G14A U19A, 0.91.
In the case of U12C U97A, the self-cleavage was found to be 1.6.
Take A13U C107U: the self-cleavage worked out at 0.
In the case of G15U A82U it was 0.23; in that of A13G A52U, 0.84.
Consider A13G A52G, for which the self-cleavage was 1.22.
In the case of A18C U43C, the self-cleavage came to 1.44.
As for U12C A135G, the figure is 1.25; as for U12C A135C, 0.84; as for U12G A27C, 1.
As for A13C A30G, the figure is 1.49; as for G14C U127C, 1.15.
As for A13G U103C, the self-cleavage is 0.75.
As for G14C U132C, the figure is 1.04; as for C16U A118G, 1.16.
G14A C40A: the self-cleavage was determined as 1.54.
In the case of A13U C34U it was 1.2; in that of G14A A18G, 1.29; in that of A13U A59G, 0.41.
Regarding G14A A86G, the self-cleavage turned out to be 1.02.
Turning to A13G A51U, the self-cleavage came to 0.66.
Take A13G A129G: the self-cleavage was 0.85.
In the case of A13G A135C it was 0.49; in that of G15A U108C, 0; in that of G15A U108A, 0.01.
As for C16U A96G, the figure is 1.27; as for A13U A62G, 0.9; as for C17U, 0.8.
Regarding C17A, the self-cleavage came to 1.46.
With A13U A117G, the self-cleavage was determined as 2.05.
On to A13G A27G, for which the self-cleavage was found to be 1.15.
G15A A23G: the self-cleavage came to 0.9.
With U12C U122G, the self-cleavage came out at 2.09.
With A18C A111G, the self-cleavage is 0.02.
Turning to G15C A111G, the self-cleavage came to 0.01.
In the case of G14A A69G it was 1.03; in that of U12G A86G, 0.92; in that of A13G U26C, 0.93.
With U12C G28U, the self-cleavage turned out to be 0.66.
Regarding G14A A111G, the self-cleavage was found to be 0.01.
As for U12C U39C, the figure is 1.21.
As for A13U U108C, the figure is 0.01.
For the variant A13C U139C, the self-cleavage is 1.48.
A18G A59G: the self-cleavage stood at 1.19.
